From patent US20230303666A1 (published 2023)

Biological target: SARS-CoV-2 S on pseudotyped lentivirus (pCMV-SARS2deltaC-gp41) (SARS-CoV-2, UniProt P0DTC2 14-1246)
Experiment: cell-based or functional assay

| Binder | IC50 of neutralization of pseudotyped lentiviral infection [nM] | IC50 of pseudovirus neutralization [nM] | pseudovirus neutralization potency, fold increase against monomeric SR6v15 [fold] |
| --- | --- | --- | --- |
| SR6c3 (VHH) VHH: EVQLVESGGGLVQAGDSLRLSCAASGDCHVLWRMGWFRQAPGKEREFVAAISLDGQFTNYADSVRGRFSISADSAKNTVYLQMNSLKPEDTAVYYCAALPFLDYWGQGTQVTVSS | 62.7 | – | – |
| SR6v15.d (VHH) EVQLVESGGGLVQAGDSLRLSCAASGDSYILWRMGWFRQAPGKEREFVAAISLDGQFTNYADSVRGRFSISADSAKYTVYLQMNSLKPEDTAVYYCAALPFLDYWGQGTQVTVSSEVQLVESGGGLVQAGDSLRLSCAASGDSYILWRMGWFRQAPGKEREFVAAISLDGQFTNYADSVRGRFSISADSAKYTVYLQMNSLKPEDTAVYYCAALPFLDYWGQGTQVTVSS | – | 0.329 | > 10 |
